Assays:
[1] = biological target: BCL2 peptide Ac-…-amide (amino acids 41-54 of human BCL2 with linkers) (human); experiment: imaging mass cytometry; peptide 2.50E-07 M in core; Ab 1 ug/ml
[2] = biological target: BCL2 peptide Ac-…-amide (amino acids 41-54 of human BCL2 with linkers) (human); experiment: imaging mass cytometry; peptide 2.50E-05 M in core
[3] = biological target: Bovine serum albumin (BSA; Ultra Pure) (bovine) (UniProt P02769); experiment: imaging mass cytometry; no peptide (second background core); Ab 1 ug/ml
Sequence of UniProt P02769 (P02769 25-607 limits assumed): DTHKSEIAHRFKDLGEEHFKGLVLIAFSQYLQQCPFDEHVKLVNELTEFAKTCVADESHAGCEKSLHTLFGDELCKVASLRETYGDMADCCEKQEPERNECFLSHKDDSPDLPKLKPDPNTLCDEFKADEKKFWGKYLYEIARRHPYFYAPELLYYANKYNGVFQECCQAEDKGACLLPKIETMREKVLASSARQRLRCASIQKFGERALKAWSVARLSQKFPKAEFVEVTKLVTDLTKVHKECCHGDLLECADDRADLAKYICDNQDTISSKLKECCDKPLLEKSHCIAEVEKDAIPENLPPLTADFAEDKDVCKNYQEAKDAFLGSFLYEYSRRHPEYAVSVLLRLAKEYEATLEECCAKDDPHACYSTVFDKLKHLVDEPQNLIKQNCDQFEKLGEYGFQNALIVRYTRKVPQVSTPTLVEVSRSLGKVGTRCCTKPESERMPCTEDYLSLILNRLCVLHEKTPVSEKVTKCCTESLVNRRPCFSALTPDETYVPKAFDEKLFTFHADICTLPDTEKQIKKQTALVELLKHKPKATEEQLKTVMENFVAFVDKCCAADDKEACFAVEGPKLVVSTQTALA

[4] = biological target: BCL2 peptide Ac-…-amide (amino acids 41-54 of human BCL2 with linkers) (human); experiment: imaging mass cytometry; peptide 2.50E-04 M in core (second core); Ab 1 ug/ml
[5] = biological target: BCL2 peptide Ac-…-amide (amino acids 41-54 of human BCL2 with linkers) (human); experiment: imaging mass cytometry; peptide 2.50E-04 M in core; Ab 5 ug/ml
[6] = biological target: BCL2 peptide Ac-…-amide (amino acids 41-54 of human BCL2 with linkers) (human); experiment: imaging mass cytometry; peptide 2.50E-05 M in core; Ab 1 ug/ml
[7] = biological target: Bovine serum albumin (BSA; Ultra Pure) (bovine) (UniProt P02769); experiment: imaging mass cytometry; no peptide (second background core); Ab 10 ug/ml
[8] = biological target: BCL2 peptide Ac-…-amide (amino acids 41-54 of human BCL2 with linkers) (human); experiment: imaging mass cytometry; peptide 2.50E-08 M in core; Ab 10 ug/ml
[9] = biological target: Bovine serum albumin (BSA; Ultra Pure) (bovine) (UniProt P02769); experiment: imaging mass cytometry; no peptide (background core); Ab 1 ug/ml
[10] = biological target: BCL2 peptide Ac-…-amide (amino acids 41-54 of human BCL2 with linkers) (human); experiment: imaging mass cytometry; peptide 2.50E-05 M in core; Ab 5 ug/ml
[11] = biological target: BCL2 peptide Ac-…-amide (amino acids 41-54 of human BCL2 with linkers) (human); experiment: imaging mass cytometry; peptide 2.50E-07 M in core; Ab 5 ug/ml
[12] = biological target: BCL2 peptide Ac-…-amide (amino acids 41-54 of human BCL2 with linkers) (human); experiment: imaging mass cytometry; peptide 2.50E-06 M in core
[13] = biological target: BCL2 peptide Ac-…-amide (amino acids 41-54 of human BCL2 with linkers) (human); experiment: imaging mass cytometry; peptide 2.50E-06 M in core; Ab 1 ug/ml
[14] = biological target: BCL2 peptide Ac-…-amide (amino acids 41-54 of human BCL2 with linkers) (human); experiment: imaging mass cytometry; peptide 2.50E-05 M in core; Ab 10 ug/ml
[15] = biological target: BCL2 peptide Ac-…-amide (amino acids 41-54 of human BCL2 with linkers) (human); experiment: imaging mass cytometry; peptide 2.50E-08 M in core (second core); Ab 10 ug/ml
[16] = biological target: BCL2 peptide Ac-…-amide (amino acids 41-54 of human BCL2 with linkers) (human); experiment: imaging mass cytometry; peptide 2.50E-06 M in core (second core); Ab 5 ug/ml
[17] = biological target: BCL2 peptide Ac-…-amide (amino acids 41-54 of human BCL2 with linkers) (human); experiment: imaging mass cytometry; peptide 2.50E-06 M in core; Ab 5 ug/ml
[18] = biological target: BCL2 peptide Ac-…-amide (amino acids 41-54 of human BCL2 with linkers) (human); experiment: imaging mass cytometry; peptide 2.50E-06 M in core (second core); Ab 1 ug/ml
[19] = biological target: BCL2 peptide Ac-…-amide (amino acids 41-54 of human BCL2 with linkers) (human); experiment: imaging mass cytometry; peptide 2.50E-08 M in core (second core); Ab 1 ug/ml
[20] = biological target: BCL2 peptide Ac-…-amide (amino acids 41-54 of human BCL2 with linkers) (human); experiment: imaging mass cytometry; peptide 2.50E-04 M in core; Ab 1 ug/ml
[21] = biological target: BCL2 peptide Ac-…-amide (amino acids 41-54 of human BCL2 with linkers) (human); experiment: imaging mass cytometry; peptide 2.50E-07 M in core (second core); Ab 5 ug/ml
[22] = biological target: BCL2 peptide Ac-…-amide (amino acids 41-54 of human BCL2 with linkers) (human); experiment: imaging mass cytometry; peptide 2.50E-05 M in core (second core); Ab 10 ug/ml
[23] = biological target: BCL2 peptide Ac-…-amide (amino acids 41-54 of human BCL2 with linkers) (human); experiment: imaging mass cytometry; peptide 2.50E-05 M in core (second core); Ab 5 ug/ml
[24] = biological target: BCL2 peptide Ac-…-amide (amino acids 41-54 of human BCL2 with linkers) (human); experiment: imaging mass cytometry; peptide 2.50E-08 M in core; Ab 5 ug/ml
[25] = biological target: BCL2 peptide Ac-…-amide (amino acids 41-54 of human BCL2 with linkers) (human); experiment: imaging mass cytometry; peptide 2.50E-06 M in core (second core); Ab 10 ug/ml
[26] = biological target: BCL2 peptide Ac-…-amide (amino acids 41-54 of human BCL2 with linkers) (human); experiment: imaging mass cytometry; peptide 2.50E-07 M in core (second core); Ab 1 ug/ml
[27] = biological target: BCL2 peptide Ac-…-amide (amino acids 41-54 of human BCL2 with linkers) (human); experiment: imaging mass cytometry; peptide 2.50E-07 M in core; Ab 10 ug/ml
[28] = biological target: BCL2 peptide Ac-…-amide (amino acids 41-54 of human BCL2 with linkers) (human); experiment: imaging mass cytometry; peptide 2.50E-05 M in core (second core); Ab 1 ug/ml
[29] = biological target: Bovine serum albumin (BSA; Ultra Pure) (bovine) (UniProt P02769); experiment: imaging mass cytometry; no peptide (background core); Ab 10 ug/ml
[30] = biological target: BCL2 peptide Ac-…-amide (amino acids 41-54 of human BCL2 with linkers) (human); experiment: imaging mass cytometry; peptide 2.50E-04 M in core
[31] = biological target: BCL2 peptide Ac-…-amide (amino acids 41-54 of human BCL2 with linkers) (human); experiment: imaging mass cytometry; peptide 2.50E-04 M in core (second core); Ab 5 ug/ml

Sequence of BCL2 peptide Ac-…-amide (amino acids 41-54 of human BCL2 with linkers) (human) (peptide, as listed by the source): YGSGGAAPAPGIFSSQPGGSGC

Integrated Ion counts (per 150 micron square ROI) [1]: 1580 ion counts | Average Ion count [2]: 32600 ion counts | Ion count above background [2]: 31500 ion counts | Moles ^146Nd Ab detected per ROI [2]: 1.76e-17 mol | ^146Nd Ab/peptide [2]: 0.78% | Integrated Ion counts (per 150 micron square ROI) [3]: 1310 ion counts | Integrated Ion counts (per 150 micron square ROI) [4]: 42200 ion counts | Integrated Ion counts (per 150 micron square ROI) [5]: 35300 ion counts | Integrated Ion counts (per 150 micron square ROI) [6]: 32400 ion counts | Integrated Ion counts (per 150 micron square ROI) [7]: 1160 ion counts | Integrated Ion counts (per 150 micron square ROI) [8]: 1230 ion counts | Integrated Ion counts (per 150 micron square ROI) [9]: 1350 ion counts | Integrated Ion counts (per 150 micron square ROI) [10]: 16600 ion counts | Integrated Ion counts (per 150 micron square ROI) [11]: 1370 ion counts | Average Ion count [12]: 6400 ion counts | Ion count above background [12]: 522 ion counts | Moles ^146Nd Ab detected per ROI [12]: 2.93e-18 mol | ^146Nd Ab/peptide [12]: 1.3% | Integrated Ion counts (per 150 micron square ROI) [13]: 7750 ion counts | Integrated Ion counts (per 150 micron square ROI) [14]: 39300 ion counts | Integrated Ion counts (per 150 micron square ROI) [15]: 1720 ion counts | Integrated Ion counts (per 150 micron square ROI) [16]: 3900 ion counts | Integrated Ion counts (per 150 micron square ROI) [17]: 4290 ion counts | Integrated Ion counts (per 150 micron square ROI) [18]: 7700 ion counts | Integrated Ion counts (per 150 micron square ROI) [19]: 1410 ion counts | Integrated Ion counts (per 150 micron square ROI) [20]: 59300 ion counts | Integrated Ion counts (per 150 micron square ROI) [21]: 1400 ion counts | Integrated Ion counts (per 150 micron square ROI) [22]: 48700 ion counts | Integrated Ion counts (per 150 micron square ROI) [23]: 15100 ion counts | Integrated Ion counts (per 150 micron square ROI) [24]: 976 ion counts | Integrated Ion counts (per 150 micron square ROI) [25]: 3910 ion counts | Integrated Ion counts (per 150 micron square ROI) [26]: 2380 ion counts | Integrated Ion counts (per 150 micron square ROI) [27]: 1550 ion counts | Integrated Ion counts (per 150 micron square ROI) [28]: 43900 ion counts | Integrated Ion counts (per 150 micron square ROI) [29]: 979 ion counts | Average Ion count [30]: 58300 ion counts | Ion count above background [30]: 56900 ion counts | Moles ^146Nd Ab detected per ROI [30]: 3.2e-17 mol | ^146Nd Ab/peptide [30]: 0.14% | Integrated Ion counts (per 150 micron square ROI) [31]: 37400 ion counts
Substance: Fluidigm EPR17509-^146Nd antibody
